The test system of data set [1] is HeLa Kyoto. Briefly: solubility change mitosis vs G1/S (difference of NP-40 vs SDS log2 ratios) (log2 ratio difference); higher = more soluble in mitosis.
The test system of data set [2] is HeLa Kyoto. Briefly: solubility in G1/S (NP-40 vs SDS abundance) (log2 ratio); higher = more soluble. Particulars: cell cycle stage: G1/S.
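Throughout, for solubility change mitosis vs G1/S (difference of NP-40 vs SDS log2 ratios): synchronized HeLa Kyoto cells (double thymidine block for G1/S, nocodazole release for mitosis), protein amounts in NP-40 versus SDS lysates quantified by mass spectrometry, three biological replicates.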
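Throughout, for solubility in G1/S (NP-40 vs SDS abundance): HeLa Kyoto cells arrested at G1/S by double thymidine block, proteins quantified by TMT10plex mass spectrometry in mild NP-40 versus SDS extracts, three biological replicates.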

Consider “MPGEEEERAFLVAREELASALRRDSGQAFSLEQLRPLLASSLPLAARYLQLDAARLVRCNAHGEPRNYLNTLSTALNILEKYGRNLLSPQRPRYWRGVKFNNPVFRSTVDAVQGGRDVLRLYGYTEEQPDGLSFPEGQEEPDEHQVATVTLEVLLLRTELSLLLQNTHPRQQALEQLLEDKVEDDMLQLSEFDPLLREIAPGPLTTPSVPGSTPGPCFLCGSAPGTLHCPSCKQALCPACDHLFHGHPSRAHHLRQTLPGVLQGTHLSPSLPASAQPRPQSTSLLALGDSSLSSPNPASAHLPWHCAACAMLNEPWAVLCVACDRPRGCKGLGLGTEGPQGTGGLEPDLARGRWACQSCTFENEAAAVLCSICERPRLAQPPSLVVDSRDAGICLQPLQQGDALLASAQSQVWYCIHCTFCNSSPGWVCVMCNRTSSPIPAQHAPRPYASSLEKGPPKPGPPRRLSAPLPSSCGDPEKQRQDKMREEGLQLVSMIREGEAAGACPEEIFSALQYSGTEVPLQWLRSELPYVLEMVAELAGQQDPGLGAFSCQEARRAWLDRHGNLDEAVEECVRTRRRKVQELQSLGFGPEEGSLQALFQHGGDVSRALTELQRQRLEPFRQRLWDSGPEPTPSWDGPDKQSLVRRLLAVYALPSWGRAELALSLLQETPRNYELGDVVEAVRHSQDRAFLRRLLAQECAVCGWALPHNRMQALTSCECTICPDCFRQHFTIALKEKHITDMVCPACGRPDLTDDTQLLSYFSTLDIQLRESLEPDAYALFHKKLTEGVLMRDPKFLWCAQCSFGFIYEREQLEATCPQCHQTFCVRCKRQWEEQHRGRSCEDFQNWKRMNDPEYQAQGLAMYLQENGIDCPKCKFSYALARGGCMHFHCTQCRHQFCSGCYNAFYAKNKCPEPNCRVKKSLHGHHPRDCLFYLRDWTALRLQKLLQDNNVMFNTEPPAGARAVPGGGCRVIEQKEVPNGLRDEACGKETPAGYAGLCQAHYKEYLVSLINAHSLDPATLYEVEELETATERYLHVRPQPLAGEDPPAYQARLLQKLTEEVPLGQSIPRRRK [RNF31]”, for which, in the data set on HeLa Kyoto [1], the “solubility change mitosis (log2)” value is -0.0502. Further, the “solubility in G1/S (log2)” value in the data set on HeLa Kyoto [2] is -0.0767.
The matching figures for “MPGRAEAGEAEEEAGAGSGSEAEEDALWERIEGVRHRLARALNPAKLTPYLRQCRVIDEQDEEEVLSTYRFPCRVNRTGRLMDILRCRGKRGYEAFLEALEFYYPEHFTLLTGQEPAQRCSMILDEEGPEGLTQFLMTEVRRLREARKSQLQREQQLQARGRVLEEERAGLEQRLRDQQQAQERCQRLREDWEAGSLELLRLKDENYMIAMRLAQLSEEKNSAVLRSRDLQLAVDQLKLKVSRLEEECALLRRARGPPPGAEEKEKEKEKEKEPDNVDLVSELRAENQRLTASLRELQEGLQQEASRPGAPGSERILLDILEHDWREAQDSRQELCQKLHAVQGELQWAEELRDQYLQEMEDLRLKHRTLQKDCDLYKHRMATVLAQLEEIEKERDQAIQSRDRIQLQYSQSLIEKDQYRKQVRGLEAERDELLTTLTSLEGTKALLEVQLQRAQGGTCLKACASSHSLCSNLSSTWSLSEFPSPLGGPEATGEAAVMGGPEPHNSEEATDSEKEINRLSILPFPPSAGSILRRQREEDPAPPKRSFSSMSDITGSVTLKPWSPGLSSSSSSDSVWPLGKPEGLLARGCGLDFLNRSLAIRVSGRSPPGGPEPQDKGPDGLSFYGDRWSGAVVRRVLSGPGSARMEPREQRVEAAGLEGACLEAEAQQRTLLWNQGSTLPSLMDSKACQSFHEALEAWAKGPGAEPFYIRANLTLPERADPHALCVKAQEILRLVDSAYKRRQEWFCTRVDPLTLRDLDRGTVPNYQRAQQLLEVQEKCLPSSRHRGPRSNLKKRALDQLRLVRPKPVGAPAGDSPDQLLLEPCAEPERSLRPYSLVRPLLVSALRPVVLLPECLAPRLIRNLLDLPSSRLDFQVCPAESLSGEELCPSSAPGAPKAQPATPGLGSRIRAIQESVGKKHCLLELGARGVRELVQNEIYPIVIHVEVTEKNVREVRGLLGRPGWRDSELLRQCRGSEQVLWGLPCSWVQVPAHEWGHAEELAKVVRGRILQEQARLVWVECGSSRGCPSSSEA [CARD10]”: 0.0575 and -0.0585.
As for “MPLLVEGRRVRLPQSAGDLVRAHPPLEERARLLRGQSVQQVGPQGLLYVQQRELAVTSPKDGSISILGSDDATTCHIVVLRHTGNGATCLTHCDGTDTKAEVPLIMNSIKSFSDHAQCGRLEVHLVGGFSDDRQLSQKLTHQLLSEFDRQEDDIHLVTLCVTELNDREENENHFPVIYGIAVNIKTAEIYRASFQDRGPEEQLRAARTLAGGPMISIYDAETEQLRIGPYSWTPFPHVDFWLHQDDKQILENLSTSPLAEPPHFVEHIRSTLMFLKKHPSPAHTLFSGNKALLYKKNEDGLWEKISSPGS [NTAN1]”, the “solubility change mitosis (log2)” value in the data set on HeLa Kyoto [1] was found to be 0.176. In addition, in the data set with HeLa Kyoto [2], the “solubility in G1/S (log2)” value is -0.142.

The record behind these values is the supplement of paper PMC5998384.
